# According to article PMC11322666 (2024):
# B1: UPF3B^WT, Flag tagged [human] / inositol-requiring enzyme-1α (IRE1α), endogenous [human (endogenous in HEK293T and U2OS)] (parent complex)
# chain 1: MKEEKEHRPKEKRVTLLTPAGATGSGGGTSGDSSKGEDKQDRNKEKKEALSKVVIRRLPPTLTKEQLQEHLQPMPEHDYFEFFSNDTSLYPHMYARAYINFKNQEDIILFRDRFDGYVFLDNKGQEYPAIVEFAPFQKAAKKKTKKRDTKVGTIDDDPEYRKFLESYATDNEKMTSTPETLLEEIEAKNRELIAKKTTPLLSFLKNKQRMREEKREERRRREIERKRQREEERRKWKEEEKRKRKDIEKLKKIDRIPERDKLKDEPKIKVHRFLLQAVNQKNLLKKPEKGDEKELDKREKAKKLDKENLSDERASGQSCTLPKRSDSELKDEKPKRPEDESGRDYREREREYERDQERILRERERLKRQEEERRRQKERYEKEKTFKRKEEEMKKEKDTLRDKGKKAESTESIGSSEKTEKKEEVVKRDRIRNKDRPAMQLYQPGARSRNRLCPPDDSTKSGDSAAERKQESGISHRKEGGEE
# chain 2: IFGSTSTVTLPETLLFVSTLDGSLHAVSKRTGSIKWTLKEDPVLQVPTHVEEPAFLPDPNDGSLYTLGSKNNEGLTKLPFTIPELVQASPCRSSDGILYMGKKQDIWYVIDLLTGEKQQTLSSAFADSLCPSTSLLYLGRTEYTITMYDTKTRELRWNATYFDYAASLPEDDVDYKMSHFVSNGDGLVVTVDSESGDVLWIQNYASPVVAFYVWQREGLRKVMHINVAVETLRYLTFMSGEVGRITKWKYPFPKETEAKSKLTPTLYVGKYSTSLYASPSMVHEGVAVVPRGSTLPLLEGPQTDGVTIGDKGECVITPSTDVKFDPGLKSKNKLNYLRNYWLLIGHHETPLSASTKMLERFPNNLPKHRENVIPADSEKKSFEEVINLVDQTSENAPTTVSRDVEEKPAHAPARPEAPVDSMLKDMATIILSTFLLIGWVAFIITYPLSMHQQQQLQHQQFQKELEKIQLLQQQQQQLPFHPPGDTAQDGELLDTSGPYSESSGTSSPSTSPRASNHSLCSGSSASKAGSSPSLEQDDGDEETSVVIVGKISFCPKDVLGHGAEGTIVYRGMFDNRDVAVKRILPECFSFADREVQLLRESDEHPNVIRYFCTEKDRQFQYIAIELCAATLQEYVEQKDFAHLGLEPITLLQQTTSGLAHLHSLNIVHRDLKPHNILISMPNAHGKIKAMISDFGLCKKLAVGRHSFSRRSGVPGTEGWIAPEMLSEDCKENPTYTVDIFSAGCVFYYVISEGSHPFGKSLQRQANILLGACSLDCLHPEKHEDVIARELIEKMIAMDPQKRPSAKHVLKHPFFWSLEKQLQFFQDVSDRIEKESLDGPIVKQLERGGRAVVKMDWRENITVPLQTDLRKFRTYKGGSVRDLLRAMRNKKHHYRELPAEVRETLGSLPDDFVCYFTSRFPHLLAHTYRAMELCSHERLFQPYYFHEPPEPQPPVTPDAL
# B2: UPF3B^WT, Flag tagged [human] / UPF2, endogenous [human (endogenous in HEK293T)] (parent complex)
# chain 1: B1 chain 1
# chain 2: MPAERKKPASMEEKDSLPNNKEKDCSERRTVSSKERPKDDIKLTAKKEVSKAPEDKKKRLEDDKRKKEDKERKKKDEEKVKAEEESKKKEEEEKKKHQEEERKKQEEQAKRQQEEEAAAQMKEKEESIQLHQEAWERHHLRKELRSKNQNAPDSRPEENFFSRLDSSLKKNTAFVKKLKTITEQQRDSLSHDFNGLNLSKYIAEAVASIVEAKLKISDVNCAVHLCSLFHQRYADFAPSLLQVWKKHFEARKEEKTPNITKLRTDLRFIAELTIVGIFTDKEGLSLIYEQLKNIINADRESHTHVSVVISFCRHCGDDIAGLVPRKVKSAAEKFNLSFPPSEIISPEKQQPFQNLLKEYFTSLTKHLKRDHRELQNTERQNRRILHSKGELSEDRHKQYEEFAMSYQKLLANSQSLADLLDENMPDLPQDKPTPEEHGPGIDIFTPGKPGEYDLEGGIWEDEDARNFYENLIDLKAFVPAILFKDNEKSCQNKESNKDDTKEAKESKENKEVSSPDDLELELENLEINDDTLELEGGDEAEDLTKKLLDEQEQEDEEASTGSHLKLIVDAFLQQLPNCVNRDLIDKAAMDFCMNMNTKANRKKLVRALFIVPRQRLDLLPFYARLVATLHPCMSDVAEDLCSMLRGDFRFHVRKKDQINIETKNKTVRFIGELTKFKMFTKNDTLHCLKMLLSDFSHHHIEMACTLLETCGRFLFRSPESHLRTSVLLEQMMRKKQAMHLDARYVTMVENAYYYCNPPPAEKTVKKKRPPLQEYVRKLLYKDLSKVTTEKVLRQMRKLPWQDQEVKDYVICCMINIWNVKYNSIHCVANLLAGLVLYQEDVGIHVVDGVLEDIRLGMEVNQPKFNQRRISSAKFLGELYNYRMVESAVIFRTLYSFTSFGVNPDGSPSSLDPPEHLFRIRLVCTILDTCGQYFDRGSSKRKLDCFLVYFQRYVWWKKSLEVWTKDHPFPIDIDYMISDTLELLRPKIKLCNSLEESIRQVQDLEREFLIKLGLVNDKDSKDSMTEGENLEEDEEEEEGGAETEEQSGNESEVNEPEEEEGSDNDDDEGEEEEEENTDYLTDSNKENETDEENTEVMIKGGGLKHVPCVEDEDFIQALDKMMLENLQQRSGESVKVHQLDVAIPLHLKSQLRKGPPLGGGEGEAESADTMPFVMLTRKGNKQQFKILNVPMSSQLAANHWNQQQAEQEERMRMKKLTLDINERQEQEDYQEMLQSLAQRPAPANTNRERRPRYQHPKGAPNADLIFKTGGRRR
# Variants of: B1
# Test: co-immunoprecipitation (IP: Flag, blot IRE1α), western blot band quantification; transfected for 24 h
row,Variant,ratio to parent
1,chain 1 T197D,1.1
2,chain 1 T197A,1.22

# Variants of: B1
# Test: as above
# Remark: another data set of the same source
row,Variant,ratio to parent
1,chain 1 T198A,1.06
2,chain 1 T198D,1.21

# Variants of: B1
# Test: co-immunoprecipitation (IP: Flag, blot IRE1α), western blot band quantification; U2OS cells, transfected for 24 h
row,Variant,ratio to parent
1,chain 1 Y160D,0.17
2,chain 1 Y160F,1.29

# Variants of: B1
# Test: co-immunoprecipitation (IP: Flag, blot IRE1α), western blot band quantification; HEK293T cells, transfected for 24 h
row,Variant,ratio to parent
1,chain 1 Y160D,0.21
2,chain 1 Y160F,1.28

# Variants of: B1
# Test: as above
# Remark: another data set of the same source
row,Variant,ratio to parent
1,chain 1 T169A,1.15
2,chain 1 T169D,0.26

# Variants of: B2
# Test: co-immunoprecipitation (IP: Flag, blot UPF2), western blot band quantification; transfected for 24 h
row,Variant,ratio to parent
1,chain 1 MKEEKEHRPKEKRVTLLTPAGATGSGGGTSGDSSKGEDKQDRNKEKKEALSKVVIRRLPPTLTKEQLQEHLQPMPEHDYFEFFSNDTSLYPHMYARAYINFKNQEDIILFRDRFDGYVFLDNKGQEYPAIVEFAPFQKAAKKKTKKRDTKVGTIDDDPEYRKFLESYATDNEKMTSTPETLLEEIEAKNRELIAKKTDPLLSFLKNKQRMREEKREERRRREIERKRQREEERRKWKEEEKRKRKDIEKLKKIDRIPERDKLKDEPKIKVHRFLLQAVNQKNLLKKPEKGDEKELDKREKAKKLDKENLSDERASGQSCTLPKRSDSELKDEKPKRPEDESGRDYREREREYERDQERILRERERLKRQEEERRRQKERYEKEKTFKRKEEEMKKEKDTLRDKGKKAESTESIGSSEKTEKKEEVVKRDRIRNKDRPAMQLYQPGARSRNRLCPPDDSTKSGDSAAERKQESGISHRKEGGEE [chain 1 T198D],1.07
2,chain 1 MKEEKEHRPKEKRVTLLTPAGATGSGGGTSGDSSKGEDKQDRNKEKKEALSKVVIRRLPPTLTKEQLQEHLQPMPEHDYFEFFSNDTSLYPHMYARAYINFKNQEDIILFRDRFDGYVFLDNKGQEYPAIVEFAPFQKAAKKKTKKRDTKVGTIDDDPEYRKFLESYATDNEKMTSTPETLLEEIEAKNRELIAKKDTPLLSFLKNKQRMREEKREERRRREIERKRQREEERRKWKEEEKRKRKDIEKLKKIDRIPERDKLKDEPKIKVHRFLLQAVNQKNLLKKPEKGDEKELDKREKAKKLDKENLSDERASGQSCTLPKRSDSELKDEKPKRPEDESGRDYREREREYERDQERILRERERLKRQEEERRRQKERYEKEKTFKRKEEEMKKEKDTLRDKGKKAESTESIGSSEKTEKKEEVVKRDRIRNKDRPAMQLYQPGARSRNRLCPPDDSTKSGDSAAERKQESGISHRKEGGEE [chain 1 T197D],1.11

# Variants of: B2
# Test: as above
# Remark: another data set of the same source
row,Variant,ratio to parent
1,chain 1 MKEEKEHRPKEKRVTLLTPAGATGSGGGTSGDSSKGEDKQDRNKEKKEALSKVVIRRLPPTLTKEQLQEHLQPMPEHDYFEFFSNDTSLYPHMYARAYINFKNQEDIILFRDRFDGYVFLDNKGQEYPAIVEFAPFQKAAKKKTKKRDTKVGTIDDDPEYRKFLESYADDNEKMTSTPETLLEEIEAKNRELIAKKTTPLLSFLKNKQRMREEKREERRRREIERKRQREEERRKWKEEEKRKRKDIEKLKKIDRIPERDKLKDEPKIKVHRFLLQAVNQKNLLKKPEKGDEKELDKREKAKKLDKENLSDERASGQSCTLPKRSDSELKDEKPKRPEDESGRDYREREREYERDQERILRERERLKRQEEERRRQKERYEKEKTFKRKEEEMKKEKDTLRDKGKKAESTESIGSSEKTEKKEEVVKRDRIRNKDRPAMQLYQPGARSRNRLCPPDDSTKSGDSAAERKQESGISHRKEGGEE [chain 1 T169D],0.2
2,chain 1 MKEEKEHRPKEKRVTLLTPAGATGSGGGTSGDSSKGEDKQDRNKEKKEALSKVVIRRLPPTLTKEQLQEHLQPMPEHDYFEFFSNDTSLYPHMYARAYINFKNQEDIILFRDRFDGYVFLDNKGQEYPAIVEFAPFQKAAKKKTKKRDTKVGTIDDDPEYRKFLESYAADNEKMTSTPETLLEEIEAKNRELIAKKTTPLLSFLKNKQRMREEKREERRRREIERKRQREEERRKWKEEEKRKRKDIEKLKKIDRIPERDKLKDEPKIKVHRFLLQAVNQKNLLKKPEKGDEKELDKREKAKKLDKENLSDERASGQSCTLPKRSDSELKDEKPKRPEDESGRDYREREREYERDQERILRERERLKRQEEERRRQKERYEKEKTFKRKEEEMKKEKDTLRDKGKKAESTESIGSSEKTEKKEEVVKRDRIRNKDRPAMQLYQPGARSRNRLCPPDDSTKSGDSAAERKQESGISHRKEGGEE [chain 1 T169A],1.1

# Variants of: B2
# Test: as above
# Remark: another data set of the same source
row,Variant,ratio to parent
1,chain 1 MKEEKEHRPKEKRVTLLTPAGATGSGGGTSGDSSKGEDKQDRNKEKKEALSKVVIRRLPPTLTKEQLQEHLQPMPEHDYFEFFSNDTSLYPHMYARAYINFKNQEDIILFRDRFDGYVFLDNKGQEYPAIVEFAPFQKAAKKKTKKRDTKVGTIDDDPEDRKFLESYATDNEKMTSTPETLLEEIEAKNRELIAKKTTPLLSFLKNKQRMREEKREERRRREIERKRQREEERRKWKEEEKRKRKDIEKLKKIDRIPERDKLKDEPKIKVHRFLLQAVNQKNLLKKPEKGDEKELDKREKAKKLDKENLSDERASGQSCTLPKRSDSELKDEKPKRPEDESGRDYREREREYERDQERILRERERLKRQEEERRRQKERYEKEKTFKRKEEEMKKEKDTLRDKGKKAESTESIGSSEKTEKKEEVVKRDRIRNKDRPAMQLYQPGARSRNRLCPPDDSTKSGDSAAERKQESGISHRKEGGEE [chain 1 Y160D],0.21
2,chain 1 MKEEKEHRPKEKRVTLLTPAGATGSGGGTSGDSSKGEDKQDRNKEKKEALSKVVIRRLPPTLTKEQLQEHLQPMPEHDYFEFFSNDTSLYPHMYARAYINFKNQEDIILFRDRFDGYVFLDNKGQEYPAIVEFAPFQKAAKKKTKKRDTKVGTIDDDPEFRKFLESYATDNEKMTSTPETLLEEIEAKNRELIAKKTTPLLSFLKNKQRMREEKREERRRREIERKRQREEERRKWKEEEKRKRKDIEKLKKIDRIPERDKLKDEPKIKVHRFLLQAVNQKNLLKKPEKGDEKELDKREKAKKLDKENLSDERASGQSCTLPKRSDSELKDEKPKRPEDESGRDYREREREYERDQERILRERERLKRQEEERRRQKERYEKEKTFKRKEEEMKKEKDTLRDKGKKAESTESIGSSEKTEKKEEVVKRDRIRNKDRPAMQLYQPGARSRNRLCPPDDSTKSGDSAAERKQESGISHRKEGGEE [chain 1 Y160F],1.08
